Measurements as given in patent US20130097734A1.

What was measured:
Assay in all cases: cell-based or functional assay
[1] = biological target: T1, AVR3a homolog from Phytophthora palmivora designated as L7B (Phytophthora palmivora)
T1 sequence: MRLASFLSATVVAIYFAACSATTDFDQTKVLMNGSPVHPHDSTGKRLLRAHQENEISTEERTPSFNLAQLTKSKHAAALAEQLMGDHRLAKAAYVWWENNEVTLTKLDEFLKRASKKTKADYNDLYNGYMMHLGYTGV

[2] = biological target: T2, AVR3a homolog from Phytophthora palmivora designated as L6B (Phytophthora palmivora)
T2 sequence: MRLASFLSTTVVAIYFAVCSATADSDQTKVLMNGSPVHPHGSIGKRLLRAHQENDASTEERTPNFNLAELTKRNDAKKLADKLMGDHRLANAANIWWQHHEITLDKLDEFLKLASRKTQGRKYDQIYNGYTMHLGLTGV

[3] = biological target: AVR3a^KI effector protein of Phytophthora infestans (Phytophthora infestans) (UniProt Q572D3)
[4] = biological target: T3, AVR3a homolog from Phytophthora palmivora designated as L3B (Phytophthora palmivora)
T3 sequence: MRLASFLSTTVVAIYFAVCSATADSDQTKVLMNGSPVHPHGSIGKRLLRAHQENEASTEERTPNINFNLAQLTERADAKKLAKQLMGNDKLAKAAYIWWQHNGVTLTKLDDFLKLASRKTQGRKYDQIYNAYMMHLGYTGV

B1: modified R3a protein corresponding to clone GS4 (protein)
chain: MEIGLAVGGAFLSSALNVLFDRLAPHGDLLNMFQKHKDHVKLLKKLEDILLGLQIVLSDAENKQASNRHVSQWFNKLQNAVDGAENLIEQVNYEALRLKVEGQHQNLAETSNQQVSDLNLCFSDDFFLNIKDKLEETIETLEVLEKQIGRLGLKEHFGSTKQETRTPSTSLVDDSDIFGRQNDIEDLIDRLLSEDASGKKRTVVPIVGMGGLGKTTLAKAVYNDERVQIHFGLKAWFCVSEAFDAFRITKGLLQEIGSFDLKADDNLNQLQVKLKERLKGKKFLIVLDDVWNDNYNKWDELRNVFVQGDIGSKIIVTTRKESVALMMGNEQISMDNLSTESSWSLFKTHAFENMGPMGHPELEEVGKQIAAKCKGLPLALKTLAGMLRSKSEVEEWKRILRSEIWELPHNDILPALMLSYNDLPAHLKRCFSFCAIFPKDYPFRKEQVIHLWIANGLVPQEDVIIEDSGNQYFLELRSRSLFERVPNPSQGNTENLFLMHDLVNDLAQIASSKLCIRLEESQGSHMLEQSQHLSYSMGYGGEFEKLTPLYKLEQLRTLLPTCIDLPDCCHHLSKRVLHNILPRLTSLRALSLSCYEIVELPNDLFIKLKLLRFLDISRTEIKRLPDSICALYNLETLLLSSCYDLEELPLQMEKLINLRHLDISNTRPLKMPLHLSKLKSLQVLVGAKFLIGGLRMEDLGEVHNLYGSLSVVELQNVVDRREAVKAKMREKNHVDRLYLEWSGSSSADNSQTERDILDELRPHKNIKVVKITGYRGTNFPNWLADPLFLKLVKLSLRNCKNCYSLPALGQLPFLKFLSIREMHGITEVTEEFYGSWSSKKPFNCLEKLEFKDMPEWKQWDLLGSGEFPILEKLLIENCPELSLETVPIQLSSLKSFDVIGSPLVINFPLSILPTTLKRIKISDCQKLKLEQPTGEISMFLEELTLIKCDCIDDISPELLPRARKLWVQDWHNLTRFLIPTATETLDIWNCENVEILSVACGGTQMTSLTIAYCKKLKWLPERMQELLPSLKELHLSNCPEIESFPEGGLPFNLQQLAIRYCKKLVNGRKEWHLQRRLCLTALIIYHDGSDEEIVGGENWELPSSIQRLTIVNLKTLSSQHLKNLTSLQYLFIRGNLPQIQPMLEQGQCSHLTSLQSLQISSLQSLPESALPSSLSHLEISHCPNLQSLPESALPSSLSQLTINNCPNLQSLSESTLPSSLSQLEISFCPNLQYLPLKGMPSSLSELSIYKCPLLKPQLEFDKGEYWPNIAQFPTIKIDRECM
[1]
  Cell death/HR intensity, pVnt1-R3aGS4, 1dpi: 2
  Cell death/HR intensity, pVnt1-R3aGS4, 2dpi: 2
  Cell death/HR intensity, pVnt1-R3aGS4, 3dpi: 2
[2]
  Cell death/HR intensity, pVnt1-R3aGS4, 1dpi: 0
  Cell death/HR intensity, pVnt1-R3aGS4, 2dpi: 0
  Cell death/HR intensity, pVnt1-R3aGS4, 3dpi: 0
[3]
  Cell death/HR intensity, pVnt1-R3aGS4, 1dpi: 2
  Cell death/HR intensity, pVnt1-R3aGS4, 2dpi: 4
  Cell death/HR intensity, pVnt1-R3aGS4, 3dpi: 4
[4]
  Cell death/HR intensity, pVnt1-R3aGS4, 1dpi: 0
  Cell death/HR intensity, pVnt1-R3aGS4, 2dpi: 2
  Cell death/HR intensity, pVnt1-R3aGS4, 3dpi: 3
